Source: paper PMC4381055

Columns and labels:
[1] = target: EcoRNAP sigma70 holoenzyme (Escherichia coli) (UniProt P0A7Z4+P0A8V2+P0A8T7+P0A800+P00579); test: stopped-flow Cy3 fluorescence enhancement; conditions: scale: fold fluorescence enhancement
[2] = target: EcoRNAP sigma70 holoenzyme (Escherichia coli, UniProt P0A7Z4;P0A8V2;P0A8T7;P0A800;P00579 1-329;1-1342;1-1407;2-91;1-613); test: 25 C, no CarD

| Molecule | binding signal [1] | apparent K (half saturation) [2] |
| --- | --- | --- |
| template lacking rrnAP3 promoter, Cy3 | 0.05 | – |
| rrnAP3 150 bp template, +2 Cy3 (dsDNA, C6-amine on non-template +2 T) DNA 1: AAAATAGGCGTATCACGAGGCCCTTTCGTCTTCAAGAATTCGTCTTGACTCCATTGCCGGATTTGTATTAGACTGGCAGGGTTGAAGCTTATGTATCACCTGACGTCATGATGAACTCAGAAGTGAAACTACGTATATCCGATGGTAGTG DNA 2: CACTACCATCGGATATACGTAGTTTCACTTCTGAGTTCATCATGACGTCAGGTGATACATAAGCTTCAACCCTGCCAGTCTAATACAAATCCGGCAATGGAGTCAAGACGAATTCTTGAAGACGAAAGGGCCTCGTGATACGCCTATTTT | – | 23 nM |
